Data reported in publication PMC8715002, “Biochemical and Structural Characterization of a Novel Bacterial Tannase From Lachnospiraceae bacterium in Ruminant Gastrointestinal Tract” (Frontiers in Bioengineering and Biotechnology, 2021).

Columns and labels:
Test in all cases: purified protein
Format in all cases: biochemical, Lachnospiraceae bacterium
Settings in all cases: pH 7.0, 50 °C, 0.2–5 mM substrate
[1] = system: T1, CCCCCCCCCCCCOC(=O)c1cc(O)c(O)c(O)c1
T1 construct: about 68 kDa, monomer; catalytic Ser205/Asp582/His614; forward primer reads MSQSTATR; signal peptide not discussed

[2] = system: T2, CCCOC(=O)c1cc(O)c(O)c(O)c1
T2 construct: about 68 kDa, monomer; catalytic Ser205/Asp582/His614; forward primer reads MSQSTATR; signal peptide not discussed

[3] = system: T3, CCOC(=O)c1cc(O)c(O)c(O)c1
T3 construct: about 68 kDa, monomer; catalytic Ser205/Asp582/His614; forward primer reads MSQSTATR; signal peptide not discussed

[4] = system: T4, COC(=O)c1cc(O)c(O)c(O)c1
T4 construct: about 68 kDa, monomer; catalytic Ser205/Asp582/His614; forward primer reads MSQSTATR; signal peptide not discussed

Work on “TanALb (tannase from Lachnospiraceae bacterium) (Lachnospiraceae bacterium)” yielded a Km [1] of 1.8 ± 0.26 mM, a kcat [1] of 24.6 ± 5.2 s⁻¹ and a kcat/Km [1] of 15300 ± 2100 M⁻¹ s⁻¹. For the same substance, the Km [2] was 2.0 ± 0.22 mM, the kcat [2] was 44.2 ± 3.6 s⁻¹ and the kcat/Km [2] was 24500 ± 4000 M⁻¹ s⁻¹. It also gave a Km [3] of 2.6 ± 0.19 mM, a kcat [3] of 78.8 ± 10.4 s⁻¹ and a kcat/Km [3] of 33300 ± 7300 M⁻¹ s⁻¹. The Km [4] was 2.8 ± 0.35 mM, the kcat [4] was 82.5 ± 6.3 s⁻¹ and the kcat/Km [4] was 36400 ± 4400 M⁻¹ s⁻¹.
